How the values were obtained:
Type in all cases: in vivo
[1] = test system: Arabidopsis thaliana T1 plants; test: Topramezone tolerance of transgenic Arabidopsis thaliana T1 plants (spray, bleached leaf area grade, damage score); conditions: 7 DAT, Table 4; for Classification and statistics of the grade of pesticide damage: Grade 0 / Classification and statistics of the grade of pesticide damage: Grade 1 / Classification and statistics of the grade of pesticide damage: Grade 2 / Classification and statistics of the grade of pesticide damage: Grade 3: number of plants; for Scores: pesticide damage score 0-100
How it was run: (§1)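 Damage was assessed by bleaching grade (0 none; 1 <50%; 2 >50%; 3 100% of leaf area) one week after spraying. Sprays on 18-day-old T1 and wild-type plants used field-rate multiples: topramezone 25–200, isoxaflutole 35–280, mesotrione 52.5–420 g ai/ha.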

[2] = test system: Arabidopsis thaliana T1 plants; test: Isoxaflutole tolerance of transgenic Arabidopsis thaliana T1 plants (spray, bleached leaf area grade, damage score); set-up: Scores (pesticide damage): scale not given here; conditions: spray, Arabidopsis thaliana T1 plants; for Classification and statistics of the grade of pesticide damage: Grade 0 (number of plants) / Classification and statistics of the grade of pesticide damage: Grade 1 (number of plants) / Classification and statistics of the grade of pesticide damage: Grade 2 (number of plants) / Classification and statistics of the grade of pesticide damage: Grade 3 (number of plants): 16 plants
How it was run: as §1

[3] = test system: Arabidopsis thaliana T1 plants; test: Mesotrione tolerance of transgenic Arabidopsis thaliana T1 plants (spray, bleached leaf area grade, damage score); set-up: Scores: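 damage score 0-100 computed as Σ(N×S)/(T×M)×100 over grades 0-3 with higher meaning more damage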; conditions: Arabidopsis thaliana T1 plants; for Grade 0 (classification and statistics of the grade of pesticide damage; number of plants) / Grade 1 (classification and statistics of the grade of pesticide damage; number of plants) / Grade 2 (classification and statistics of the grade of pesticide damage; number of plants) / Grade 3 (classification and statistics of the grade of pesticide damage; number of plants): 16 plants
How it was run: as §1

[4] = isoxaflutole 35 g ai/ha (0.5x field concentration)
[5] = isoxaflutole 70 g ai/ha (1x field concentration)

Row | Molecule | Classification and statistics of the grade of pesticide damage: Grade 0 ([1]; topramezone 25 g ai/ha (1×)) | Classification and statistics of the grade of pesticide damage: Grade 1 ([1]; topramezone 25 g ai/ha (1×)) | Classification and statistics of the grade of pesticide damage: Grade 2 ([1]; topramezone 25 g ai/ha (1×)) | Classification and statistics of the grade of pesticide damage: Grade 3 ([1]; topramezone 25 g ai/ha (1×)) | Classification and statistics of the grade of pesticide damage: Grade 0 ([1]; topramezone 100 g ai/ha (4×)) | Classification and statistics of the grade of pesticide damage: Grade 1 ([1]; topramezone 100 g ai/ha (4×)) | Classification and statistics of the grade of pesticide damage: Grade 2 ([1]; topramezone 100 g ai/ha (4×)) | Classification and statistics of the grade of pesticide damage: Grade 3 ([1]; topramezone 100 g ai/ha (4×)) | Scores ([1]; topramezone 25 g ai/ha (1×)) | Scores ([1]; topramezone 100 g ai/ha (4×)) | Resistance evaluation ([1]; topramezone 25 g ai/ha (1×)) | Resistance evaluation ([1]; topramezone 100 g ai/ha (4×)) | Resistance evaluation [2, 4] | Scores (pesticide damage) [2, 4] | Classification and statistics of the grade of pesticide damage: Grade 0 (number of plants) [2, 4] | Classification and statistics of the grade of pesticide damage: Grade 1 (number of plants) [2, 4] | Classification and statistics of the grade of pesticide damage: Grade 2 (number of plants) [2, 4] | Classification and statistics of the grade of pesticide damage: Grade 3 (number of plants) [2, 4] | Resistance evaluation [2, 5] | Scores (pesticide damage) [2, 5] | further results
1 | NtHPPDm-F372A-02: nucleotide sequence encoding Nicotiana tabacum HPPD with F372A; vector DBN11751 (nucleic acid, NtHPPDm-F372A-02 Nucleotide Sequence, vector DBN11751) DNA: ATGGGGAAGCTGGAAACCGTCACTACCACCTCGGCGGCGGCTGCTGATGATTCATCGGAATTAACAACCAACTTCAAGTTGGTTGGTTTCAAAAATTTCATCAGAACAAACCCAAGGTCTGATTTCTTCTCCGTCAAGAGCTTCCACCACATTGAATTCTGGTGCGGTGACGCAACTAACACAGCGCGCCGCTTCTCATGGAGCCTAGGGATGCCAATTGCAGCTAAGAGTGATCTTTCAACAGGAAACAGCGTGCACGCCTCCTACCTCCTCCGGCCCGTAAGCGGTTCTTTACAGTTCCTGTTTACAGCACCATATTCACCTTCTATTTCGACTCCTAGTTCAGCTGCAATCCCATCTTTTTCCACATCTACACATAGGTCTTTCACTACAACACATGGACTGGGTGTTCGTGCCGTCGCCCTCGAGGTGGAGAATGCTTATACTGCCTTCAGTGCTTCTGTCTCCAGAGGCGCCAAGCCAATGTTTGAACCTGTGACAATTGATGAACAAGTAGCAATGGCTGAGGTTCATTTGTACGGCGATGTTGTGCTGCGATTTGTTTCTTATCTCAAGGACGCCGACAACCTGGTCTTCCTGCCGGGGTTTGAGGCCATGGATGAAACTGCTAGTTACAAAGAACTTGATTATGGAATACGGCGTTTGGATCATGCTGTGGGCAATGTTCCAGAACTCGGCCCGGTAGTTGATTACATCAAGAGGTTTACTGGATTTCATGAATTTGCAGAGTTTACCGCTGAAGATGTGGGAACTGCGGAAAGTGGGCTAAACTCCATGGTTCTTGCGAACAATGATGAGACTGTGCTCCTCCCTCTGAATGAGCCTGTTTATGGCACCAAAAGAAAATCTCAGATACAAACATATCTTGAGCATAATGAAGGAGCTGGGGTGCAGCACCTTGCTCTTGTTACTGAAGACATCTTTAAGACTTTGACAGAGATGAGGAAGAGAAGTGGAGTTGGAGGTTTTGAGTTCATGCCTTCCCCCCCGCCGACCTACTACAAGAATTTGAAGAACAGGGCTGGTGACGTCCTCTCAGACGAGCAGATTTTGGCTTGTGAGGAGCTTGGCATCTTGGTAGACCGGGACGACCAGGGGACGCTTCTCCAAATTGCCACAAAACCCGTCGGGGACCGCCCCACCATATTTATTGAGATCATCCAGAGGATAGGCTGCATGCTTAAAGATGGAAAAGGTCAAGTGTACCAGAAGGGTGGTTGTGGTGGGTTTGGCAAAGGAAATTTTTCTGAGCTGTTCAGAAGCATAGAAGAATATGAGAAGACACTGGAAGCAAAACAAGCAAATCAAGTTGCGGCCGCGTGA | 0 | 6 | 10 | 0 | 0 | 0 | 0 | 16 | 54 | 100 | poorly | non-resistant (non-resistant plants (scores 68-100)) | Poorly | 54 | 0 | 6 | 10 | 0 | Non-resistant | 100 | Classification and statistics of the grade of pesticide damage: Grade 0 (number of plants) [2, 5]: 0; Classification and statistics of the grade of pesticide damage: Grade 1 (number of plants) [2, 5]: 0; Classification and statistics of the grade of pesticide damage: Grade 2 (number of plants) [2, 5]: 0; Classification and statistics of the grade of pesticide damage: Grade 3 (number of plants) [2, 5]: 16; Resistance evaluation ([3]; mesotrione 52.5 g ai/ha): Poorly resistant; Scores ([3]; mesotrione 52.5 g ai/ha): 65; Grade 0 (classification and statistics of the grade of pesticide damage; number of plants) ([3]; mesotrione 52.5 g ai/ha): 0; Grade 1 (classification and statistics of the grade of pesticide damage; number of plants) ([3]; mesotrione 52.5 g ai/ha): 2; Grade 2 (classification and statistics of the grade of pesticide damage; number of plants) ([3]; mesotrione 52.5 g ai/ha): 13; Grade 3 (classification and statistics of the grade of pesticide damage; number of plants) ([3]; mesotrione 52.5 g ai/ha): 1; Resistance evaluation ([3]; mesotrione 105 g ai/ha): Non-resistant; Scores ([3]; mesotrione 105 g ai/ha): 100; Grade 0 (classification and statistics of the grade of pesticide damage; number of plants) ([3]; mesotrione 105 g ai/ha): 0; Grade 1 (classification and statistics of the grade of pesticide damage; number of plants) ([3]; mesotrione 105 g ai/ha): 0; Grade 2 (classification and statistics of the grade of pesticide damage; number of plants) ([3]; mesotrione 105 g ai/ha): 0; Grade 3 (classification and statistics of the grade of pesticide damage; number of plants) ([3]; mesotrione 105 g ai/ha): 16
2 | NtHPPDm-F383W-02: nucleotide sequence encoding Nicotiana tabacum HPPD with F383W; vector DBN11752 (nucleic acid, NtHPPDm-F383W-02 Nucleotide Sequence, vector DBN11752) DNA: ATGGGGAAGCTGGAAACCGTCACTACCACCTCGGCGGCGGCTGCTGATGATTCATCGGAATTAACAACCAACTTCAAGTTGGTTGGTTTCAAAAATTTCATCAGAACAAACCCAAGGTCTGATTTCTTCTCCGTCAAGAGCTTCCACCACATTGAATTCTGGTGCGGTGACGCAACTAACACAGCGCGCCGCTTCTCATGGAGCCTAGGGATGCCAATTGCAGCTAAGAGTGATCTTTCAACAGGAAACAGCGTGCACGCCTCCTACCTCCTCCGGCCCGTAAGCGGTTCTTTACAGTTCCTGTTTACAGCACCATATTCACCTTCTATTTCGACTCCTAGTTCAGCTGCAATCCCATCTTTTTCCACATCTACACATAGGTCTTTCACTACAACACATGGACTGGGTGTTCGTGCCGTCGCCCTCGAGGTGGAGAATGCTTATACTGCCTTCAGTGCTTCTGTCTCCAGAGGCGCCAAGCCAATGTTTGAACCTGTGACAATTGATGAACAAGTAGCAATGGCTGAGGTTCATTTGTACGGCGATGTTGTGCTGCGATTTGTTTCTTATCTCAAGGACGCCGACAACCTGGTCTTCCTGCCGGGGTTTGAGGCCATGGATGAAACTGCTAGTTACAAAGAACTTGATTATGGAATACGGCGTTTGGATCATGCTGTGGGCAATGTTCCAGAACTCGGCCCGGTAGTTGATTACATCAAGAGGTTTACTGGATTTCATGAATTTGCAGAGTTTACCGCTGAAGATGTGGGAACTGCGGAAAGTGGGCTAAACTCCATGGTTCTTGCGAACAATGATGAGACTGTGCTCCTCCCTCTGAATGAGCCTGTTTATGGCACCAAAAGAAAATCTCAGATACAAACATATCTTGAGCATAATGAAGGAGCTGGGGTGCAGCACCTTGCTCTTGTTACTGAAGACATCTTTAAGACTTTGACAGAGATGAGGAAGAGAAGTGGAGTTGGAGGTTTTGAGTTCATGCCTTCCCCCCCGCCGACCTACTACAAGAATTTGAAGAACAGGGCTGGTGACGTCCTCTCAGACGAGCAGATTTTGGCTTGTGAGGAGCTTGGCATCTTGGTAGACCGGGACGACCAGGGGACGCTTCTCCAAATTTTCACAAAACCCGTCGGGGACCGCCCCACCATATGGATTGAGATCATCCAGAGGATAGGCTGCATGCTTAAAGATGGAAAAGGTCAAGTGTACCAGAAGGGTGGTTGTGGTGGGTTTGGCAAAGGAAATTTTTCTGAGCTGTTCAGAAGCATAGAAGAATATGAGAAGACACTGGAAGCAAAACAAGCAAATCAAGTTGCGGCCGCGTGA | 0 | 0 | 10 | 6 | 0 | 0 | 0 | 16 | 79 | 100 | non-resistant (non-resistant plants (scores 68-100)) | non-resistant (non-resistant plants (scores 68-100)) | Non-resistant | 88 | 0 | 0 | 6 | 10 | Non-resistant | 100 | Classification and statistics of the grade of pesticide damage: Grade 0 (number of plants) [2, 5]: 0; Classification and statistics of the grade of pesticide damage: Grade 1 (number of plants) [2, 5]: 0; Classification and statistics of the grade of pesticide damage: Grade 2 (number of plants) [2, 5]: 0; Classification and statistics of the grade of pesticide damage: Grade 3 (number of plants) [2, 5]: 16; Resistance evaluation ([3]; mesotrione 52.5 g ai/ha): Non-resistant; Scores ([3]; mesotrione 52.5 g ai/ha): 100; Grade 0 (classification and statistics of the grade of pesticide damage; number of plants) ([3]; mesotrione 52.5 g ai/ha): 0; Grade 1 (classification and statistics of the grade of pesticide damage; number of plants) ([3]; mesotrione 52.5 g ai/ha): 0; Grade 2 (classification and statistics of the grade of pesticide damage; number of plants) ([3]; mesotrione 52.5 g ai/ha): 0; Grade 3 (classification and statistics of the grade of pesticide damage; number of plants) ([3]; mesotrione 52.5 g ai/ha): 16; Resistance evaluation ([3]; mesotrione 105 g ai/ha): Non-resistant; Scores ([3]; mesotrione 105 g ai/ha): 100; Grade 0 (classification and statistics of the grade of pesticide damage; number of plants) ([3]; mesotrione 105 g ai/ha): 0; Grade 1 (classification and statistics of the grade of pesticide damage; number of plants) ([3]; mesotrione 105 g ai/ha): 0; Grade 2 (classification and statistics of the grade of pesticide damage; number of plants) ([3]; mesotrione 105 g ai/ha): 0; Grade 3 (classification and statistics of the grade of pesticide damage; number of plants) ([3]; mesotrione 105 g ai/ha): 16
